According to PMC4895218, “Structural flexibility of the periplasmic protein, FlgA, regulates flagellar P-ring assembly in Salmonella enterica” (Scientific Reports, 2016):
Changes are numbered by the printed parent chain. Names may count otherwise.

T1: N-terminally His-tagged FlgI (Salmonella enterica serovar Typhimurium, UniProt P15930 20-365)
T1 construct: FlgI, flagellar P-ring component protein, Salmonella enterica serovar Typhimurium; Probably without its Sec signal peptide (surmise); also called His-FlgI; source: E. coli Origami2 (DE3), co-expressed, in cell extract (pull-down); purified (SPR); not shown: His tag, N-terminal, kept
T1 sequence (looked up): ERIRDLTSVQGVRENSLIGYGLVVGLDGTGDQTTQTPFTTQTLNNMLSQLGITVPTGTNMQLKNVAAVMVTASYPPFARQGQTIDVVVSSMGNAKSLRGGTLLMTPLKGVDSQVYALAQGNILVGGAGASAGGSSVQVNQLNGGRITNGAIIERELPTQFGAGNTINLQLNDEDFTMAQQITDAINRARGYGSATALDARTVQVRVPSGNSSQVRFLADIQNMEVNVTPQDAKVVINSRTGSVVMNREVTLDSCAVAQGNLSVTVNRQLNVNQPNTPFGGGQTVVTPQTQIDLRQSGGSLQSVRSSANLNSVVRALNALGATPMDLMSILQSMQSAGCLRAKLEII

B1: FlgA_(R113C-S190C) (purified, histidine tag removed) (natural protein)
chain: QDINAQLTTWFSQRLAGFSDEVVVTLRSSPNLLPSCEQPAFSMTGSAKLWGNVNVVARCANEKRYLQVNVQATGNYVAVAAPIARGGKLTPANVTLKRGRLDQLPPRTVLDICQIQDAVSLRDLAPGQPVQLTMIRQAWRVKAGQRVQVIANGEGFSVNAEGQAMNNAAVAQNARVRMTSGQIVSGTVDCDGNILINL
modifications: engineered disulfide bond between C113 and C190
notes: FlgA, Salmonella enterica serovar Typhimurium, with R113C and S190C; numbers count on: the mature protein; also called covalently closed form of FlgA; source: purified; N-terminal-fused histidine tag removed with thrombin prior to gel filtration; not shown: His tag, N-terminal, cleaved
B2: FlgA (purified, histidine tag removed) (natural protein, Salmonella enterica serovar Typhimurium)
chain: B1 chain with C113R, C190S
notes: FlgA, Salmonella enterica serovar Typhimurium; numbers count on: the mature protein (Q1-L198); The crystallised FlgA was another construct (C-terminal hexa-histidine-tagged precursor purified from the periplasm of E. coli); source: purified; N-terminal-fused histidine tag removed with thrombin prior to gel filtration; not shown: His tag, N-terminal, cleaved

Tests used:
[1] = target: T1, N-terminally His-tagged FlgI; assay: SPR; Biacore T200, 25 °C; FlgI immobilised on CM5 chip by amine coupling, FlgA or FlgA R113C-S190C as analyte; 10 mM HEPES, 150 mM NaCl, 0.05% Surfactant P20, pH 7.4; two-state reaction model; settings: both partners purified
[2] = target: T1, N-terminally His-tagged FlgI; assay: SPR; Biacore T200, 25 °C; FlgA or FlgA R113C-S190C immobilised on CM5 chip by amine coupling, FlgI as analyte; 10 mM HEPES, 150 mM NaCl, 0.05% Surfactant P20, pH 7.4; two-state reaction model; settings: both partners purified

Binder | Kd [1] [nM] | Kd [2] [nM]
B1 | 106 | 166
B2 | 126 | 354
